{"source": "paper PMC10150487", "about": "“m^6A readers ECT2/ECT3/ECT4 enhance mRNA stability through direct recruitment of the poly(A) binding proteins in Arabidopsis” (Genome Biology, 2023)", "binders": {"B1": {"name": "maltose-binding protein (MBP)-tagged ECT3 (natural protein, Arabidopsis thaliana, UniProt F4K1Z0 1-495, looked up)", "chain": "MANPDHVSDVLHNLSIDPTTKALAPDSETKLQGAYGGNGNDFLLNDELVEATKIGKPSLLSKDGGVTKDKGSNLKKLGYQSAAYNAKGSYGKGAYAYGYYPPAYQYPRHGYTGSYASGKTNLQYQYLTQQGRSAGNGQSYGGYMDNIYSNYGMCGPYTNGYGYGSYGYDSWKYMPNWYAVNNTYKPRNGYHGYGKENIEGLNEMNRGPRAKGFNSQDGSKVMAVSLKEQRVTETEKLSEDVSLLDPKDYNKIDFPETYTEAKFYVIKSYSEDDIHKSIKYSVWSSTPNGNKKLDASYNEAKQKSDGCPVFLLFSVNTSGQFVGLAEMVGPVDFNKTVEYWQQDKWIGCFPVKWHFVKDIPNSSLRHITLENNENKPVTNSRDTQEVKLEQGIKVIKIFKDHASKTCILDDFEFYENRQKIIQERKSKHLQIKKQTLVANADKGVMSKINLVKPQESTTASEDAAALGVAAEVTKESKVVKETELPVEKNAVATAC", "notes": "also called MBP-ECT3; source: Escherichia coli, purified recombinant protein"}, "B2": {"name": "MBP-tagged PAB2 (natural protein, Arabidopsis thaliana, UniProt P42731 1-629, looked up)", "chain": "MAQVQLQGQTPNGSTAAVTSAPATSGGATATQFGNTSLYVGDLDFNVTDSQLFDAFGQMGTVVTVRVCRDLVTRRSLGYGYVNFTNPQDAARAIQELNYIPLYGKPIRVMYSHRDPSVRRSGAGNIFIKNLDESIDHKALHDTFSSFGNIVSCKVAVDSSGQSKGYGFVQYANEESAQKAIEKLNGMLLNDKQVYVGPFLRRQERDSTANKTKFTNVYVKNLAESTTDDDLKNAFGEYGKITSAVVMKDGEGKSKGFGFVNFENADDAARAVESLNGHKFDDKEWYVGRAQKKSERETELRVRYEQNLKEAADKFQSSNLYVKNLDPSISDEKLKEIFSPFGTVTSSKVMRDPNGTSKGSGFVAFATPEEATEAMSQLSGKMIESKPLYVAIAQRKEDRRVRLQAQFSQVRPVAMQPSVGPRMPVYPPGGPGIGQQMFYGQAPPAMIPPQPGYGYQQQLVPGMRPGGGPVPSFFMPMVQPQQQRPGGGRRPGGIQHSQQQNPMMQQQMHPRGRMFRYPQGRGGSGDVPPYDMGNNMPLTIGALASNLSNATPEQQRTMLGEVLYPLVEQVEAESAAKVTGMLLEMDQTEVLHLLESPEALKAKVAEAMDVLRSVAAGGATEQLASLNLS", "notes": "also called MBP-PAB2; source: Escherichia coli BL-21 Gold, purified (amylose resin)"}, "B3": {"name": "MBP-tagged PAB4 (natural protein, Arabidopsis thaliana, UniProt O22173 1-662, looked up)", "chain": "MAQVQAPSSHSPPPPAVVNDGAATASATPGIGVGGGGDGVTHGALCSLYVGDLDFNVTDSQLYDYFTEVCQVVSVRVCRDAATNTSLGYGYVNYSNTDDAEKAMQKLNYSYLNGKMIRITYSSRDSSARRSGVGNLFVKNLDKSVDNKTLHEAFSGCGTIVSCKVATDHMGQSRGYGFVQFDTEDSAKNAIEKLNGKVLNDKQIFVGPFLRKEERESAADKMKFTNVYVKNLSEATTDDELKTTFGQYGSISSAVVMRDGDGKSRCFGFVNFENPEDAARAVEALNGKKFDDKEWYVGKAQKKSERELELSRRYEQGSSDGGNKFDGLNLYVKNLDDTVTDEKLRELFAEFGTITSCKVMRDPSGTSKGSGFVAFSAASEASRVLNEMNGKMVGGKPLYVALAQRKEERRAKLQAQFSQMRPAFIPGVGPRMPIFTGGAPGLGQQIFYGQGPPPIIPHQPGFGYQPQLVPGMRPAFFGGPMMQPGQQGPRPGGRRSGDGPMRHQHQQPMPYMQPQMMPRGRGYRYPSGGRNMPDGPMPGGMVPVAYDMNVMPYSQPMSAGQLATSLANATPAQQRTLLGESLYPLVDQIESEHAAKVTGMLLEMDQTEVLHLLESPEALNAKVSEALDVLRNVNQPSSQGSEGNKSGSPSDLLASLSINDHL", "notes": "also called MBP-PAB4; source: Escherichia coli BL-21 Gold, purified (amylose resin)"}}, "key": {"[1]": {"target": "T1, GST-tagged full-length ECT2 (Arabidopsis thaliana, UniProt Q9LJE5 1-667)", "T1 construct": "also called GST-ECT2; Evolutionarily conserved C-terminal region 2", "T1 sequence (looked up)": "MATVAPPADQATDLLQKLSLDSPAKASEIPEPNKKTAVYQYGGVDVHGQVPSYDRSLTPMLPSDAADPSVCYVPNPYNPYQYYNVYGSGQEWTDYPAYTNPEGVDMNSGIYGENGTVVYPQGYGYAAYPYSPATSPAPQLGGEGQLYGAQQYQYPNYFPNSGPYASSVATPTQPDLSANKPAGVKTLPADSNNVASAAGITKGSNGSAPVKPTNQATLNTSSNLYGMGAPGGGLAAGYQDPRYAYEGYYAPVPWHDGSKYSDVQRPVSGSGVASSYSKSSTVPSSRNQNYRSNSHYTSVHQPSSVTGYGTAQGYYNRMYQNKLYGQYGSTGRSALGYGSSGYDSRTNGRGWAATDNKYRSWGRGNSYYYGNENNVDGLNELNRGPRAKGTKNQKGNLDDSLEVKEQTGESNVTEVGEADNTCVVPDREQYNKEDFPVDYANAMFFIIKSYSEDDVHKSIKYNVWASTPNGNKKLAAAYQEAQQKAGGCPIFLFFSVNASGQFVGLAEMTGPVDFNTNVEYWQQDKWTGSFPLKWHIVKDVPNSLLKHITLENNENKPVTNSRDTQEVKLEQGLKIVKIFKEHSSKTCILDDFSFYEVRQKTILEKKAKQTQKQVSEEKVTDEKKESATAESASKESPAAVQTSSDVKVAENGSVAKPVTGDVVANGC", "assay": "pull-down; GST pull-down: purified MBP-ECT3 and SUMO-ECT4 incubated with GST-ECT2 or GST alone, GST magnetic beads, immunoblot with anti-GST, anti-MBP and anti-SUMO", "details": "both partners purified"}, "[2]": {"target": "T1, GST-tagged full-length ECT2", "assay": "pull-down; GST pull-down: 100 pmol pre-cleared MBP-PAB2 or MBP-PAB4 mixed with 100 pmol GST or GST-ECT2 (full length or fragments) and glutathione magnetic agarose beads, 2 h at 4 °C, IPP buffer (150 mM NaCl, 0.1% NP-40, 10 mM Tris pH 7.4, 0.5 mM DTT); immunoblot with anti-MBP and anti-GST", "details": "both partners purified"}}}
{"binder": "B1", "values": [{"measurement": "binding result", "setting": "[1]", "value": "binds"}]}
{"binder": "B2", "values": [{"measurement": "binding result", "setting": "[2]", "value": "binds"}]}
{"binder": "B3", "values": [{"measurement": "binding result", "setting": "[2]", "value": "binds"}]}
